Read-outs that look alike come from different tables or passages of the source.
B1: LE32Y (scFv)
scFv: QSALTQPRSVSGSPGQSVTISCAGTSSDVGSYNYVSWYQQHPGKAPKLMIYQVNKRASGVPDRFSGSKSGNTASLTISGLQAEDEADYYCASYRSSDHNIVFGGGTKLTVLGGGGSGGGGSGGGGSEVQLVESGGGLVQPGGSLRLSCAASGFTFSSYAMSWVRQAPGKGLEWVSTINSGTGSPYYADSVKGRFTISRDNSKNTLYLQMNSLRAEDTAVYYCAKNFFDGSWFLGPPAMDYWGQGTLVTVSSHHHHHH
notes: AS170036 VL1VH1 scFv mutein
B2: LH98I (scFv)
scFv: QSALTQPRSVSGSPGQSVTISCAGTSSDVGSENYVSWYQQHPGKAPKLMIYQVNKRASGVPDRFSGSKSGNTASLTISGLQAEDEADYYCASYRSSDINIVFGGGTKLTVLGGGGSGGGGSGGGGSEVQLVESGGGLVQPGGSLRLSCAASGFTFSSYAMSWVRQAPGKGLEWVSTINSGTGSPYYADSVKGRFTISRDNSKNTLYLQMNSLRAEDTAVYYCAKNFFDGSWFLGPPAMDYWGQGTLVTVSSHHHHHH
notes: AS170036 VL1VH1 scFv mutein; also called AS170036 VL1VH1-VLH98I
B3: LH98F (scFv)
scFv: QSALTQPRSVSGSPGQSVTISCAGTSSDVGSENYVSWYQQHPGKAPKLMIYQVNKRASGVPDRFSGSKSGNTASLTISGLQAEDEADYYCASYRSSDFNIVFGGGTKLTVLGGGGSGGGGSGGGGSEVQLVESGGGLVQPGGSLRLSCAASGFTFSSYAMSWVRQAPGKGLEWVSTINSGTGSPYYADSVKGRFTISRDNSKNTLYLQMNSLRAEDTAVYYCAKNFFDGSWFLGPPAMDYWGQGTLVTVSSHHHHHH
notes: AS170036 VL1VH1 scFv mutein; also called AS170036 VL1VH1-VLH98F
B4: LH98R (scFv)
scFv: QSALTQPRSVSGSPGQSVTISCAGTSSDVGSENYVSWYQQHPGKAPKLMIYQVNKRASGVPDRFSGSKSGNTASLTISGLQAEDEADYYCASYRSSDRNIVFGGGTKLTVLGGGGSGGGGSGGGGSEVQLVESGGGLVQPGGSLRLSCAASGFTFSSYAMSWVRQAPGKGLEWVSTINSGTGSPYYADSVKGRFTISRDNSKNTLYLQMNSLRAEDTAVYYCAKNFFDGSWFLGPPAMDYWGQGTLVTVSSHHHHHH
notes: AS170036 VL1VH1 scFv mutein
B5: LY34H (scFv)
scFv: QSALTQPRSVSGSPGQSVTISCAGTSSDVGSENHVSWYQQHPGKAPKLMIYQVNKRASGVPDRFSGSKSGNTASLTISGLQAEDEADYYCASYRSSDHNIVFGGGTKLTVLGGGGSGGGGSGGGGSEVQLVESGGGLVQPGGSLRLSCAASGFTFSSYAMSWVRQAPGKGLEWVSTINSGTGSPYYADSVKGRFTISRDNSKNTLYLQMNSLRAEDTAVYYCAKNFFDGSWFLGPPAMDYWGQGTLVTVSSHHHHHH
notes: AS170036 VL1VH1 scFv mutein
B6: LH98T (scFv)
scFv: QSALTQPRSVSGSPGQSVTISCAGTSSDVGSENYVSWYQQHPGKAPKLMIYQVNKRASGVPDRFSGSKSGNTASLTISGLQAEDEADYYCASYRSSDTNIVFGGGTKLTVLGGGGSGGGGSGGGGSEVQLVESGGGLVQPGGSLRLSCAASGFTFSSYAMSWVRQAPGKGLEWVSTINSGTGSPYYADSVKGRFTISRDNSKNTLYLQMNSLRAEDTAVYYCAKNFFDGSWFLGPPAMDYWGQGTLVTVSSHHHHHH
notes: AS170036 VL1VH1 scFv mutein; also called AS170036 VL1VH1-VLH98T
B7: LH98S (scFv)
scFv: QSALTQPRSVSGSPGQSVTISCAGTSSDVGSENYVSWYQQHPGKAPKLMIYQVNKRASGVPDRFSGSKSGNTASLTISGLQAEDEADYYCASYRSSDSNIVFGGGTKLTVLGGGGSGGGGSGGGGSEVQLVESGGGLVQPGGSLRLSCAASGFTFSSYAMSWVRQAPGKGLEWVSTINSGTGSPYYADSVKGRFTISRDNSKNTLYLQMNSLRAEDTAVYYCAKNFFDGSWFLGPPAMDYWGQGTLVTVSSHHHHHH
notes: AS170036 VL1VH1 scFv mutein
B8: LH98N (scFv)
scFv: QSALTQPRSVSGSPGQSVTISCAGTSSDVGSENYVSWYQQHPGKAPKLMIYQVNKRASGVPDRFSGSKSGNTASLTISGLQAEDEADYYCASYRSSDNNIVFGGGTKLTVLGGGGSGGGGSGGGGSEVQLVESGGGLVQPGGSLRLSCAASGFTFSSYAMSWVRQAPGKGLEWVSTINSGTGSPYYADSVKGRFTISRDNSKNTLYLQMNSLRAEDTAVYYCAKNFFDGSWFLGPPAMDYWGQGTLVTVSSHHHHHH
notes: AS170036 VL1VH1 scFv mutein
B9: LH98Q (scFv)
scFv: QSALTQPRSVSGSPGQSVTISCAGTSSDVGSENYVSWYQQHPGKAPKLMIYQVNKRASGVPDRFSGSKSGNTASLTISGLQAEDEADYYCASYRSSDQNIVFGGGTKLTVLGGGGSGGGGSGGGGSEVQLVESGGGLVQPGGSLRLSCAASGFTFSSYAMSWVRQAPGKGLEWVSTINSGTGSPYYADSVKGRFTISRDNSKNTLYLQMNSLRAEDTAVYYCAKNFFDGSWFLGPPAMDYWGQGTLVTVSSHHHHHH
notes: AS170036 VL1VH1 scFv mutein; also called AS170036 VL1VH1-VLH98Q
B10: LH98A (scFv)
scFv: QSALTQPRSVSGSPGQSVTISCAGTSSDVGSENYVSWYQQHPGKAPKLMIYQVNKRASGVPDRFSGSKSGNTASLTISGLQAEDEADYYCASYRSSDANIVFGGGTKLTVLGGGGSGGGGSGGGGSEVQLVESGGGLVQPGGSLRLSCAASGFTFSSYAMSWVRQAPGKGLEWVSTINSGTGSPYYADSVKGRFTISRDNSKNTLYLQMNSLRAEDTAVYYCAKNFFDGSWFLGPPAMDYWGQGTLVTVSSHHHHHH
notes: AS170036 VL1VH1 scFv mutein; also called AS170036 VL1VH1-VLH98A
B11: LH98P (scFv)
scFv: QSALTQPRSVSGSPGQSVTISCAGTSSDVGSENYVSWYQQHPGKAPKLMIYQVNKRASGVPDRFSGSKSGNTASLTISGLQAEDEADYYCASYRSSDPNIVFGGGTKLTVLGGGGSGGGGSGGGGSEVQLVESGGGLVQPGGSLRLSCAASGFTFSSYAMSWVRQAPGKGLEWVSTINSGTGSPYYADSVKGRFTISRDNSKNTLYLQMNSLRAEDTAVYYCAKNFFDGSWFLGPPAMDYWGQGTLVTVSSHHHHHH
notes: AS170036 VL1VH1 scFv mutein; also called AS170036 VL1VH1-VLH98P
B12: LH98V (scFv)
scFv: QSALTQPRSVSGSPGQSVTISCAGTSSDVGSENYVSWYQQHPGKAPKLMIYQVNKRASGVPDRFSGSKSGNTASLTISGLQAEDEADYYCASYRSSDVNIVFGGGTKLTVLGGGGSGGGGSGGGGSEVQLVESGGGLVQPGGSLRLSCAASGFTFSSYAMSWVRQAPGKGLEWVSTINSGTGSPYYADSVKGRFTISRDNSKNTLYLQMNSLRAEDTAVYYCAKNFFDGSWFLGPPAMDYWGQGTLVTVSSHHHHHH
notes: AS170036 VL1VH1 scFv mutein; also called AS170036 VL1VH1-VLH98V
B13: LH98M (scFv)
scFv: QSALTQPRSVSGSPGQSVTISCAGTSSDVGSENYVSWYQQHPGKAPKLMIYQVNKRASGVPDRFSGSKSGNTASLTISGLQAEDEADYYCASYRSSDMNIVFGGGTKLTVLGGGGSGGGGSGGGGSEVQLVESGGGLVQPGGSLRLSCAASGFTFSSYAMSWVRQAPGKGLEWVSTINSGTGSPYYADSVKGRFTISRDNSKNTLYLQMNSLRAEDTAVYYCAKNFFDGSWFLGPPAMDYWGQGTLVTVSSHHHHHH
notes: AS170036 VL1VH1 scFv mutein
B14: LH98G (scFv)
scFv: QSALTQPRSVSGSPGQSVTISCAGTSSDVGSENYVSWYQQHPGKAPKLMIYQVNKRASGVPDRFSGSKSGNTASLTISGLQAEDEADYYCASYRSSDGNIVFGGGTKLTVLGGGGSGGGGSGGGGSEVQLVESGGGLVQPGGSLRLSCAASGFTFSSYAMSWVRQAPGKGLEWVSTINSGTGSPYYADSVKGRFTISRDNSKNTLYLQMNSLRAEDTAVYYCAKNFFDGSWFLGPPAMDYWGQGTLVTVSSHHHHHH
notes: AS170036 VL1VH1 scFv mutein
B15: LH98W (scFv)
scFv: QSALTQPRSVSGSPGQSVTISCAGTSSDVGSENYVSWYQQHPGKAPKLMIYQVNKRASGVPDRFSGSKSGNTASLTISGLQAEDEADYYCASYRSSDWNIVFGGGTKLTVLGGGGSGGGGSGGGGSEVQLVESGGGLVQPGGSLRLSCAASGFTFSSYAMSWVRQAPGKGLEWVSTINSGTGSPYYADSVKGRFTISRDNSKNTLYLQMNSLRAEDTAVYYCAKNFFDGSWFLGPPAMDYWGQGTLVTVSSHHHHHH
notes: AS170036 VL1VH1 scFv mutein
B16: LH98L (scFv)
scFv: QSALTQPRSVSGSPGQSVTISCAGTSSDVGSENYVSWYQQHPGKAPKLMIYQVNKRASGVPDRFSGSKSGNTASLTISGLQAEDEADYYCASYRSSDLNIVFGGGTKLTVLGGGGSGGGGSGGGGSEVQLVESGGGLVQPGGSLRLSCAASGFTFSSYAMSWVRQAPGKGLEWVSTINSGTGSPYYADSVKGRFTISRDNSKNTLYLQMNSLRAEDTAVYYCAKNFFDGSWFLGPPAMDYWGQGTLVTVSSHHHHHH
notes: AS170036 VL1VH1 scFv mutein
B17: LH98Y (scFv)
scFv: QSALTQPRSVSGSPGQSVTISCAGTSSDVGSENYVSWYQQHPGKAPKLMIYQVNKRASGVPDRFSGSKSGNTASLTISGLQAEDEADYYCASYRSSDYNIVFGGGTKLTVLGGGGSGGGGSGGGGSEVQLVESGGGLVQPGGSLRLSCAASGFTFSSYAMSWVRQAPGKGLEWVSTINSGTGSPYYADSVKGRFTISRDNSKNTLYLQMNSLRAEDTAVYYCAKNFFDGSWFLGPPAMDYWGQGTLVTVSSHHHHHH
notes: AS170036 VL1VH1 scFv mutein

Experiments:
[1] = target: T1, AFP158/HLA-A*02:01 complex (human); experiment: SPR, KD ratio to AS170036 VL1VH1;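 further: crude scFv captured on a sensor chip, peptide–HLA complex passed over at several concentrations, association then buffer dissociation, KD derived from on- and off-rates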
T1 construct: flowed over the chip in SPR; also called AFP158 pro
Procedure: (§1) The experiment was carried out as follows. The crude scFv protein were captured onto the sensorchip. Different concentrations (320, 160, 40 nM) of AFP158/HLA-A*02:01 complex flowed over the sensorchip surface, and were allowed to bind the antibody fragment for 100 s followed by injection of the running buffer to allow dissociation of the complex. On-rate (kd) and off-rate (kd) were calculated based on association and dissociation curve, and were used to estimate the equilibrium dissociation constant (KD).

[2] = target: T1, AFP158/HLA-A*02:01 complex; experiment: SPR, scFv captured, pMHC in flow;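 further: complex injected at several concentrations over crude scFv, association then running-buffer dissociation, KD estimated from kinetic on- and off-rate constants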
Procedure: as §1

[3] = target: T1, AFP158/HLA-A*02:01 complex; experiment: SPR, KD ratio to AS170036 VL1VH1; remark: listed apart in the source;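 further: crude scFv captured on a sensor chip, peptide–HLA complex passed over at several concentrations, association then buffer dissociation, KD derived from on- and off-rates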
Procedure: as §1

[4] = target: T1, AFP158/HLA-A*02:01 complex; experiment: SPR, scFv captured, pMHC in flow; remark: listed apart in the source;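 further: complex injected at several concentrations over crude scFv, association then running-buffer dissociation, KD estimated from kinetic on- and off-rate constants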
Procedure: as §1

Binder	Affinity increase [1]	Kd [2]	Affinity increase [3]	Kd [4]
B1	0.6 fold	430 nM	0.6 fold	430 nM
B2	3.1 fold	78 nM	3.1 fold	78 nM
B3	3.3 fold	74 nM	3.3 fold	74 nM
B4	1.1 fold	220 nM	1.1 fold	220 nM
B5	0.5 fold	540 nM	0.5 fold	540 nM
B6	2.9 fold	84 nM	2.9 fold	84 nM
B7	1.4 fold	180 nM	1.4 fold	180 nM
B8	1.5 fold	160 nM	1.5 fold	160 nM
B9	3.3 fold	75 nM	3.3 fold	75 nM
B10	2.3 fold	110 nM	2.3 fold	110 nM
B11	3.5 fold	70 nM	3.5 fold	70 nM
B12	3.2 fold	78 nM	3.2 fold	78 nM
B13	1.8 fold	140 nM	1.8 fold	140 nM
B14	0.9 fold	280 nM	0.9 fold	280 nM
B15	1.2 fold	200 nM	1.2 fold	200 nM
B16	1.2 fold	200 nM	1.2 fold	200 nM
B17	1.6 fold	160 nM	1.6 fold	160 nM

From patent US20240279318A1 (NANJING LEGEND BIOTECH, published 2024)
